The target in data set [1] is T1, MutS F36A (Escherichia coli, UniProt P23909 1-853, F36A).
T1 sequence: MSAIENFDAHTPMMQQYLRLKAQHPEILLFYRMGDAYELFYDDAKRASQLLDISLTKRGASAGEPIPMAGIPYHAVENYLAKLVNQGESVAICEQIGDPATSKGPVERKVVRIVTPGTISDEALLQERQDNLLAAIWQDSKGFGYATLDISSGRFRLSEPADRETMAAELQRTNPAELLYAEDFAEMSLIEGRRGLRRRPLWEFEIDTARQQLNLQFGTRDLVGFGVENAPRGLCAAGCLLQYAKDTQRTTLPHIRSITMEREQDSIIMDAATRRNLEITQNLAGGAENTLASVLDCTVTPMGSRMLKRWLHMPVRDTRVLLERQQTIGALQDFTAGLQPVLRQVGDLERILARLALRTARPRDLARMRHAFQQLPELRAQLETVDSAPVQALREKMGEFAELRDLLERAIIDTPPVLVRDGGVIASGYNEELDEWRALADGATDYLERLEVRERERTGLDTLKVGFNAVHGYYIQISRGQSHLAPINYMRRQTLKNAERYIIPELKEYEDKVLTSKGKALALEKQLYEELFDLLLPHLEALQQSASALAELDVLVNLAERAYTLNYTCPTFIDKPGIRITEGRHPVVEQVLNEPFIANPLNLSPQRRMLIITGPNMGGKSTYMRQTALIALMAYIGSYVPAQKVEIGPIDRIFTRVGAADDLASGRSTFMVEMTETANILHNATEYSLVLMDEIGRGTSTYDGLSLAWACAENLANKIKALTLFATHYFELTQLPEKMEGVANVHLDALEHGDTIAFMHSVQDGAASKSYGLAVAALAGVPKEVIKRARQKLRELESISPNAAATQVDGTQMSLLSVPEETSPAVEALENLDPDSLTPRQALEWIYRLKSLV
Put plainly: EMSA; 38-150 nM protein; 20 mM Tris pH 7.6, 5 mM MgCl2, 1 mM DTT, 50 ug/ml BSA, 10 mM KCl, 200 fmol homoduplex competitor, 10-20 fmol labeled DNA in 20 ul; 6% native PAGE 0.5X TBE with. To be noted: protein: recombinant; tags: His; chain copies: 2; label: 32P; blunt. Background: Mobility shift assays separate free from complexed probe on a gel.

The target of data set [2] is T1, MutS F36A. Description: EMSA; 19-150 nM protein; no nucleotide; 5 mM Mg2+; 20 mM Tris pH 7.6, 5 mM MgCl2, 1 mM DTT, 50 ug/ml BSA, 10 mM KCl, 200 fmol homoduplex competitor, 10-20 fmol labeled DNA in 20 ul; 6% native PAGE 0.5X TBE with. To be noted: protein: recombinant; tags: His; chain copies: 2; label: 5' 32P; blunt; single G-T mismatch at position 14 of strand 1.

B1: Homoduplex (dsDNA)
DNA 1: CTAGCAAGCTTTCAATTCTAGAAATTCGGC
DNA 2: GCCGAATTTCTAGAATTGAAAGCTTGCTAG
Take B1: the binding result with MutS F36A [1] was “no binding”.

B2: G-T mismatch heteroduplex (dsDNA)
DNA 1: CTAGCAAGCTTTCGATTCTAGAAATTCGGC
DNA 2: GCCGAATTTCTAGAATTGAAAGCTTGCTAG
For B2, in the data set with MutS F36A [2], the binding result is given as “no binding”.

These data come from paper PMC3437207, “G-quadruplex recognition activities of E. Coli MutS”.
